Assay results published in patent publication US20220332829A1 (NANJING SANHOME PHARMACEUTICAL, published 2022).

How the values were obtained:
[1] = target: T1, B7-H3 on surface of tumor cell (786-0, MDA-MB-231, Raji-B7-H3 cells) (human, UniProt Q5ZPR3 29-534); experiment: FACS on Raji-B7-H3 cells
T1 construct: whole, on cells; The making of Raji-B7-H3 cells is not described; also called B7-H3 on the surface of tumor cells; human B7-H3
T1 sequence (looked up): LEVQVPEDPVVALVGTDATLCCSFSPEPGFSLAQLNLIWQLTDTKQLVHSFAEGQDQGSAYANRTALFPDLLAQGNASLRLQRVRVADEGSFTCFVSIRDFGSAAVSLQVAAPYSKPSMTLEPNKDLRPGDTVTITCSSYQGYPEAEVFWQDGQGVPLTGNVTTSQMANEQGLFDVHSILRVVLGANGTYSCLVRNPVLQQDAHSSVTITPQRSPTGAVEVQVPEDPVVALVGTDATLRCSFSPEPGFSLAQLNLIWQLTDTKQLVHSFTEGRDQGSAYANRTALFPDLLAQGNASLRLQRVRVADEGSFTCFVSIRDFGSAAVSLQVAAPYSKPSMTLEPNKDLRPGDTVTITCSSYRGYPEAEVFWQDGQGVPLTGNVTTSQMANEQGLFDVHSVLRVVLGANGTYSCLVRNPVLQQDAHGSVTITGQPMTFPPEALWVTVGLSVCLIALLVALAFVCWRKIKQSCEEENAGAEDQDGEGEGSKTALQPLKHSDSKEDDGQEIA
Protocol: (§1) The binding activity of antibodies to B7-H3 on the surface of tumor cells was analyzed by FACS. Mean fluorescence intensity (MFI) and EC₅₀ detected by FACS indicate the binding activity of the antibody to cells. After 786-0 and MDA-MB-231 cells were digested, they were resuspended in 2% FBS-PBS solution and counted. After raji-B7-H3 cells were collected, they were resuspended in 2% FBS-PBS and counted. The above cells were plated in a cell plate with 1×10⁵ cells per well. The anti-B7-H3 antibody of the present disclosure was used as the primary antibody and added to cell plates in gradient dilution starting from 20 μg/mL with a total of 8 concentrations: 20,000 ng/mL, […], 2,000 ng/mL, 400 ng/mL, 80 ng/mL, 16 ng/mL, 3.2 ng/mL, and 0.64 ng/mL respectively. The plates were incubated at 4° C. for 1 h with hBRCA84D as the positive control antibody. PE-Anti-Human IgG (Biolegend, Cat. No. 409303, 1.25 μl/well) was used as the secondary antibody, washed, and detected for the fluorescence intensity generated by the binding of the antibody to the cell surface by a flow cytometer.

[2] = target: T1, B7-H3 on surface of tumor cell (786-0, …); experiment: FACS on MDA-MB-231 cells
Protocol: as §1

[3] = target: T2, human 4Ig-B7-H3-His protein (human, UniProt Q5ZPR3 29-466); experiment: ELISA, plate coated with human 4Ig-B7-H3-His, detection with anti-human IgG HRP, OD450
T2 construct: also called human B7-H3 protein
T2 sequence: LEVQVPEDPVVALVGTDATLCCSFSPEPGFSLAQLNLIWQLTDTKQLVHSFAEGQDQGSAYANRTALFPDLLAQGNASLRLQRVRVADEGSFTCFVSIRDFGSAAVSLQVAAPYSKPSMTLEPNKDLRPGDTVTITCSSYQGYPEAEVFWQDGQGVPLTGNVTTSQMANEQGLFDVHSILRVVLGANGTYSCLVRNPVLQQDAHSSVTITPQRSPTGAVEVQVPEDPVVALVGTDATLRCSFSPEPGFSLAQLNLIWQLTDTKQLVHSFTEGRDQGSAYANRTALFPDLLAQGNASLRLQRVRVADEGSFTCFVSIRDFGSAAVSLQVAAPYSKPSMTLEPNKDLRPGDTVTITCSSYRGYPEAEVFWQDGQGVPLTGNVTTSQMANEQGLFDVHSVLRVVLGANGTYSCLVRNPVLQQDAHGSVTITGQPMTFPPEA
Protocol: (§2) The binding activity of antibodies was analyzed by ELISA. 96-well ELISA plates were coated with human 4Ig-B7-H3-His protein or 2Ig-B7-H3-His protein (1 μg/well, prepared in Examples 1 and 2) and incubated overnight at 4° C. The plates were washed 3 times with 1×PBST and then blocked with 5% skim milk at 37° C. for 2 h. After washing 3 times with 1×PBST, the anti-B7-H3 antibody of the present disclosure was used as the primary antibody and added to the ELISA plates in 5-fold gradient dilution starting from 2 μg/mL with a total of 8 concentrations: 2,000 ng/mL, 400 ng/mL, 80 ng/mL, 16 ng/mL, 3.2 ng/mL, 0.64 ng/mL, 0.128 ng/mL and 0.0256 ng/mL respectively. The plates were incubated at 37° C. for 2 h with hBRCA84D as the positive control antibody. After washing 5 times with 1×PBST, Anti-Human IgG HRP (Jackson, 109-035-003, 1:5000) was used as the secondary antibody and incubated at 37° C. for 1 h. After washing 5 times with 1×PBST, color developing solution TMB was added to the plate, and microplate reader (Thermo, Multiskan FC) was used to read OD450 value after termination of the reaction. EC₅₀ was generated by GraphPad.

[4] = target: T3, human 2Ig-B7-H3-His protein (human, UniProt Q5ZPR3 29-463); experiment: ELISA, plate coated with human 2Ig-B7-H3-His, detection with anti-human IgG HRP, OD450
T3 sequence: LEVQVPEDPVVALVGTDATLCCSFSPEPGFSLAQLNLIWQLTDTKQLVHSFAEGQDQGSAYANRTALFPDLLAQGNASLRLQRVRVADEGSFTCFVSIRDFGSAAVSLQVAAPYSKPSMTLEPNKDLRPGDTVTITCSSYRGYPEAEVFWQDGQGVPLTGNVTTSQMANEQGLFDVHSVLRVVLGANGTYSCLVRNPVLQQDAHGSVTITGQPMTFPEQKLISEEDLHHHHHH
Protocol: as §2

[5] = target: T2, human 4Ig-B7-H3-His protein; experiment: Biacore X100 SPR, 4Ig-B7-H3-His coupled to CM5 chip, antibody injected
Text: The humanized anti-B7-H3 antibodies prepared in Example 4 were subjected to affinity assay by Biacore. The antigen 4Ig-B7-H3-His was first coupled to the surface of a CM5 chip (GE, Cat. No. BR100012), and the active groups of the uncoupled protein were blocked with ethanolamine. After the baseline was stable, the hu39-01, hu65-13, and hBRCA84D antibodies were respectively diluted in equal proportions. The diluted antibodies of each concentration were placed on the sample injection tray of the instrument in sequence, and the program was set to inject samples respectively.

[6] = target: T4, Cynomolgus B7-H3-His (Sino Biological, Cat. No. 90806-C08H) (cynomolgus monkey); experiment: ELISA, plate coated with cynomolgus B7-H3-His, detection with anti-human IgG HRP, OD450
T4 construct: Bought reagent; also called cynomolgus monkey B7-H3; monkey B7-H3
Protocol: The binding activity of antibodies was analyzed by protein based ELISA. Cynomolgus B7-H3-His (0.5 μg/well, Sino Biological, Cat. No. 90806-C08H) was coated on 96-well ELISA plates. The anti-B7-H3 antibodies of the present disclosure was used as the primary antibody and added to the ELISA plates in 5-fold gradient dilution starting from 2 μg/mL with a total of 8 concentrations: 2,000 ng/mL, 400 ng/mL, 80 ng/mL, 16 ng/mL, 3.2 ng/mL, 0.64 ng/mL, 0.128 ng/mL, and 0.0256 ng/mL respectively. The plates were incubated at 37° C. for 2 h with AB06.12-4P as the positive control antibody. Anti-Human IgG HRP (Jackson, 109-035-003, 1:10,000) was used as the secondary antibody. Color developing solution TMB (3,3′,5,5′-tetramethylbenzidine) was added to the plate, and microplate reader (Thermo, Multiskan FC) was used to read OD450 value after termination of the reaction. EC₅₀ was generated by GraphPad.

[7] = target: T1, B7-H3 on surface of tumor cell (786-0, …); experiment: FACS on 786-0 cells
Protocol: as §1

B1: hu51-G34K-12 (antibody, human IgG1, V domains shown)
VH: EVQLVESGGGLVKPGGSLRLSCAASGFTFSSFGMSWVRQAPGKGLEWVATINSGDNYSYSPDSVKGRFTISRDNAKNSLYLQMNSLRAEDTAVYYCARPHIFYYGSPAWFAYWGQGTLVTVSS
VL: DVVMTQSPLSLPVTLGQPASISCRSRQSLVHSNKNTYLHWFQQRPGQSPRLLIYKVSNRFSGVPDRFSGSGSGTDFTLKISRVEAEDVGVYYCSQSTHVPLTFGGGTKVEIK
notes: expressed in HEK293E; also called humanized anti-B7-H3 antibody hu51-G34K-12
- EC50 [1]: 0.12 µg/mL
- Mean fluorescence intensity (MFI) [1]: 584000
- EC50 [2]: 0.0501 µg/mL
- Mean fluorescence intensity (MFI) [2]: 156000
- EC50 (read off the curve) [3]: ~5 ng/mL
- EC50 (read off the curve) [4]: ~5 ng/mL
- Kd [5]: 0.49 nM
- koff [5]: 0.000385 s⁻¹
- kon [5]: 785000 M⁻¹ s⁻¹
- EC50 (read off the curve) [6]: ~6 ng/mL
- EC50 [7]: 0.12 µg/mL
- Mean fluorescence intensity (MFI) [7]: 584000
